Measured values as given in article PMC11272584 (Nature Metabolism, 2024).
Positions count from the first letter of the chain named.

Experiments:
GIPR E418K (human) = biological target: T1, GIPR E418K (human) (UniProt P48546)
T1 sequence: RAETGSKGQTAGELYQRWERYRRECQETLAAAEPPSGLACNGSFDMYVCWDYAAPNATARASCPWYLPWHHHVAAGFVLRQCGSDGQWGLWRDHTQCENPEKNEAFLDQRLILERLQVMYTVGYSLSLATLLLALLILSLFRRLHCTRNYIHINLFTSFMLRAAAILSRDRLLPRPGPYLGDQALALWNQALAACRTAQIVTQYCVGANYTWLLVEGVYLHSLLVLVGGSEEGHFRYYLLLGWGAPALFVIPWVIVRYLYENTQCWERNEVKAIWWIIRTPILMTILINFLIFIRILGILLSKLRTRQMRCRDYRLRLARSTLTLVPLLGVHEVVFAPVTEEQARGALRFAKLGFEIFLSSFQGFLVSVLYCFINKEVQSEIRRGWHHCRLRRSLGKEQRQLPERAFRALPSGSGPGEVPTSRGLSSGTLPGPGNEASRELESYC

GIPR G449A (human) = biological target: T2, GIPR G449A (human) (UniProt P48546)
T2 sequence: T1 sequence with K397E, G428A

GIPR L304R (human) = biological target: T3, GIPR L304R (human) (UniProt P48546)
T3 sequence: T1 sequence with L283R, K397E

GIPR R336P (human) = biological target: T4, GIPR R336P (human) (UniProt P48546)
T4 sequence: T1 sequence with R315P, K397E

GIPR S382T (human) = biological target: T5, GIPR S382T (human) (UniProt P48546)
T5 sequence: T1 sequence with S361T, K397E

GIPR Y73H (human) = biological target: T6, GIPR Y73H (human) (UniProt P48546)
T6 sequence: T1 sequence with Y52H, K397E

β-arrestin 2 recruitment (BRET) on stimulation with GIP(1-42): logEC50 (Arrestin) (log M (inferred)) (GIPR E418K (human)): -9.19 | β-arrestin 2 recruitment (BRET) on stimulation with GIP(1-42): logEC50 (Arrestin) (log M (inferred)) (GIPR G449A (human)): -9.24 | β-arrestin 2 recruitment (BRET) on stimulation with GIP(1-42): logEC50 (Arrestin) (log M (inferred)) (GIPR L304R (human)): -9.41 | β-arrestin 2 recruitment (BRET) on stimulation with GIP(1-42): logEC50 (Arrestin) (log M (inferred)) (GIPR R336P (human)): -8.82 | β-arrestin 2 recruitment (BRET) on stimulation with GIP(1-42): logEC50 (Arrestin) (log M (inferred)) (GIPR S382T (human)): -9.39 | β-arrestin 2 recruitment (BRET) on stimulation with GIP(1-42): logEC50 (Arrestin) (log M (inferred)) (GIPR Y73H (human)): -9.11
Substance: β-arrestin 2 (Rluc8-Arrestin-3-Sp1) (from UniProt P32121 1-409) (natural protein)
